The target of assay [1] is collagen-related peptide (CRP) GCO-(GPO)10-GCOG-NH2, cross-linked. As to the kind of experiment: SPR, Aegyptin over immobilized cross-linked (GPO)10, two-state binding model (the table prints 5.101 µM).
Assay [2] shares this target. As to the kind of experiment: SPR, Aegyptin over immobilized cross-linked (GPO)10 peptide, two-state model. Background: SPR reads the build-up and loss of mass on a sensor chip optically.
Assay [3] shares this target. The experiment in a line: SPR, Aegyptin over immobilized cross-linked (GPO)10 peptide, two-state model; Kd1.
The target is the same in assay [4]. As to the kind of experiment: SPR, Aegyptin over immobilized cross-linked (GPO)10 peptide, two-state model; Ka1.
The target in assay [5] is soluble collagen type I (pepsin-digested, non-fibrillar, triple helical; BD Biosciences) (human) (UniProt P02452). As to the kind of experiment: SPR, saliva injected over immobilized collagen type I, 120 sec at 20 µl/min.
Sequence of soluble collagen type I (pepsin-digested, non-fibrillar, triple helical; BD Biosciences) (human) (P02452 179-1192 limits assumed, chain 1 of 2): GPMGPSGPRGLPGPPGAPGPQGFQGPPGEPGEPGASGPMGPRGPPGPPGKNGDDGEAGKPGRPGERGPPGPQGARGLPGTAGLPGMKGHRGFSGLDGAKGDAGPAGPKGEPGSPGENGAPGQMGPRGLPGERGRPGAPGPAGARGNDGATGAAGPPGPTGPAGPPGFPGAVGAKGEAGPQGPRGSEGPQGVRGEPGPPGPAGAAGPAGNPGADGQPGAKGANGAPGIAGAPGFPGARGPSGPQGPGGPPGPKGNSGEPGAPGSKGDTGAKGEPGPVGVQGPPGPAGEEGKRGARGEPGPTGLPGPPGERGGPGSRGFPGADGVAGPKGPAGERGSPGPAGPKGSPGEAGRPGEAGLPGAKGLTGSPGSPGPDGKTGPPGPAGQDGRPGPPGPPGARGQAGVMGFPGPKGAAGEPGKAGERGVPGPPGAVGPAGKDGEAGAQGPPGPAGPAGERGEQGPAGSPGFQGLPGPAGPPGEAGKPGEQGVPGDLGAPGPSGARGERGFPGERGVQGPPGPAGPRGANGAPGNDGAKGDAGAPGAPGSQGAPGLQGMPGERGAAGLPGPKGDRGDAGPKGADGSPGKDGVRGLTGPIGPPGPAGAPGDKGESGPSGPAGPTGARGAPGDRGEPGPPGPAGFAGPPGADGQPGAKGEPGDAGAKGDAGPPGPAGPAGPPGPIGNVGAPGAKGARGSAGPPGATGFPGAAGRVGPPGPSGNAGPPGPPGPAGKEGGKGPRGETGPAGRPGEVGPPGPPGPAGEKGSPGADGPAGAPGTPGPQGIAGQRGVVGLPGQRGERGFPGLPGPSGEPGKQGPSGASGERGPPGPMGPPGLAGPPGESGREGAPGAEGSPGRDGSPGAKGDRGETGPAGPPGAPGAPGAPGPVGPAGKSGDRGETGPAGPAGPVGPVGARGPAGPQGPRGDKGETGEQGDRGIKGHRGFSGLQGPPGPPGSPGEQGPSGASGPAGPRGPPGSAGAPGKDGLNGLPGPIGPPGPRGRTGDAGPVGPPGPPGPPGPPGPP
Sequence of soluble collagen type I (pepsin-digested, non-fibrillar, triple helical; BD Biosciences) (human) (P08123 91-1104 limits assumed, chain 2 of 2, further chain): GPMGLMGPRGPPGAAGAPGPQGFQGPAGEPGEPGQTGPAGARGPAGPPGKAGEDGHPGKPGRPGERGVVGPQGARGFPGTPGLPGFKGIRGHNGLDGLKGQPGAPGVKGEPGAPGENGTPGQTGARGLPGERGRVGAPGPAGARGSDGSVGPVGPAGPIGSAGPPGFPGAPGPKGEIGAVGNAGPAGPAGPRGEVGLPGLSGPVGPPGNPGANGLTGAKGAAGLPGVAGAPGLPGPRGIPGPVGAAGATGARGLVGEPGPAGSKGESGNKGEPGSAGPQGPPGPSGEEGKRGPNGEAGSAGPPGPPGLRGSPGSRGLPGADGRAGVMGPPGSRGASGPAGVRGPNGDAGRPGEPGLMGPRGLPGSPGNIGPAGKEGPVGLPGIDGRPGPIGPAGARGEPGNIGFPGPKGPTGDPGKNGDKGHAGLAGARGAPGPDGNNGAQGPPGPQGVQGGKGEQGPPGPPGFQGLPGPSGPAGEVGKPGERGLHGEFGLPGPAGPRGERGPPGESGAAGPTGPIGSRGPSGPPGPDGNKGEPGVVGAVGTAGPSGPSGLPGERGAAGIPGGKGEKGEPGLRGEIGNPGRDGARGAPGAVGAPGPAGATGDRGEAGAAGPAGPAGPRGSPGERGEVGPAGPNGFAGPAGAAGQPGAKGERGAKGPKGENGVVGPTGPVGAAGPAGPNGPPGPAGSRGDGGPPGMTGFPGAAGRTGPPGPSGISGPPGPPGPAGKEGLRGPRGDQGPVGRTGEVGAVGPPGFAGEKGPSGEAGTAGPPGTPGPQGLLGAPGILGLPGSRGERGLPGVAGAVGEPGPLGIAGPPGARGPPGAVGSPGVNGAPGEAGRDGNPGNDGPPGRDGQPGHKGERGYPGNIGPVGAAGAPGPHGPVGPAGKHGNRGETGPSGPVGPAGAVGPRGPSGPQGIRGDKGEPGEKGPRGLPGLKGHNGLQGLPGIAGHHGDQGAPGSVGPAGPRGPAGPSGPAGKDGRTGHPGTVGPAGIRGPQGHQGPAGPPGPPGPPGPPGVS
Assay [6] has as its target soluble collagen type III (pepsin-digested, non-fibrillar; BD Biosciences) (human) (UniProt P02461). As to the kind of experiment: SPR, saliva injected over immobilized collagen type III, 120 sec at 20 µl/min.
Assay [7] has as its target horse tendon insoluble fibrillar Horm collagen (Chrono-Log), collagen I (95%) and III (5%) (horse). As to the kind of experiment: cell-based or functional assay.

Here are results for 3 substances from patent US20150010589A1.

Sequence of soluble collagen type III (pepsin-digested, non-fibrillar; BD Biosciences) (human) (P02461 168-1196 limits assumed): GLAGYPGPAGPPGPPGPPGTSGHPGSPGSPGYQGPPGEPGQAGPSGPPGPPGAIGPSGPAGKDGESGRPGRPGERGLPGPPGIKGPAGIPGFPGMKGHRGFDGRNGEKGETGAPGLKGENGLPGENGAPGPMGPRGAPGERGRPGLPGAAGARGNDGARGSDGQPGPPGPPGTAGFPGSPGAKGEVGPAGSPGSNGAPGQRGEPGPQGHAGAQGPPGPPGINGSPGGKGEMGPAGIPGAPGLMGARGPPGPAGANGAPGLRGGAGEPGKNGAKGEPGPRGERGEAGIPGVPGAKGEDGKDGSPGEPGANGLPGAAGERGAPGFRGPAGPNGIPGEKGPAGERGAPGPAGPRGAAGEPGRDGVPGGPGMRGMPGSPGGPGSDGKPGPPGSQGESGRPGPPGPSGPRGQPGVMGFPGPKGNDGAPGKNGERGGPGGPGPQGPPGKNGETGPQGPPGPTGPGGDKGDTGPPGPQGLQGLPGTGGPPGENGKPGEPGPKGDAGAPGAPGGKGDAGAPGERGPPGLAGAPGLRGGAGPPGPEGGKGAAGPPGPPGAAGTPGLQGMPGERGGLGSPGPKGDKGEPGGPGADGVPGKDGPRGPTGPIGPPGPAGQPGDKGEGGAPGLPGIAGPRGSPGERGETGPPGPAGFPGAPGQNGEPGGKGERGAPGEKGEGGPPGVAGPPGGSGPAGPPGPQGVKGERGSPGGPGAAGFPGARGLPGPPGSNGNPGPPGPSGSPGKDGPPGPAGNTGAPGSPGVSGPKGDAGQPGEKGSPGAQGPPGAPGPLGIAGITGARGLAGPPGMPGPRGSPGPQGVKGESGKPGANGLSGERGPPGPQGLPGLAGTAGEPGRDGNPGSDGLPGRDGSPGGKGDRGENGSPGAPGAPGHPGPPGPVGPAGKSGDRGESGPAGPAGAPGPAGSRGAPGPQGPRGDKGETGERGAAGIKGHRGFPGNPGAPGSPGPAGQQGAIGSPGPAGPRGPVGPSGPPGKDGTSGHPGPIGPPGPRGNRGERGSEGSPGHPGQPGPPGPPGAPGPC

Broadly, the Kd is the concentration at which binding is half-saturated. A lower Kd goes with higher affinity. Broadly, the koff is the first-order rate constant of dissociation. Read a high koff as fast dissociation. Usually kon stands for the second-order rate constant of association. A low value points to slower complex formation. For “recombinant Aegyptin (mature protein with C-terminal 6xHis tag, expressed in 293-F cells) (from UniProt O01949 20-273)”, the Kd in assay [1] was 5.01 µM. In assay [2], this substance yielded a Kd of 5.1 µM and a Kd2 of 0.0289 s⁻¹. The same substance yielded a koff in assay [3] of 1.19 s⁻¹. The substance also registered a kon in assay [4] of 206000 M⁻¹ s⁻¹.
Regarding “Ae. aegypti saliva (collected by oil-induced salivation)”, the results for the Response (RU) in assay [5] and in assay [6] were 556 RU and 348 RU, respectively.
For “Aegyptin C-terminus-2 (137 aa), truncated form without GEEDA repeats (from UniProt O01949 137-273)”, in assay [7], the collagen-induced platelet aggregation came to 3 µM.
